According to US20240043505A1 (UNIVERSITY OF PITTSBURGH OF THE COMMONWEALTH SYSTEM OF …, published 2024):
Changes are numbered by the printed parent chain. “And” between values parts separate entries of the source, which are not always exact repeats. Identical values can stand only once.

B1: Nb17 (VHH)
VHH: HVQLVESGGGLVQAGGSLRLSCAASGSIFSSNAMSWYRQAPGKQRELVASITSGGNADYADSVKGRFTISRDKNTVYPEMSSLKPADTAVYYCHAVGQEASAYAPRAYWGQGTQVTVSS
B2: Nb36 (VHH)
VHH: HVQLVESGGGLVQAGGSLTLTCAASGRTFSSETMDMGWFRQAPGKEREFVAADSWNDGSTYYADSVKGRFTISRDSAKNTLYLQMNSLKPEDTAVYYCAAETYSIYEKDDSWGYWGQGTQVTVSS
B3: Nb89 (VHH)
VHH: HVQLVESGGGLVQAGGSLRLSCAASGGTFTTFRMAWFRQTPGKEREFVAASSWGFVNYADPVKGRFTISRDNAKNTVYLEMSSLKTEDTAVYYCAARNPGTGQYDYWGQGTQVTVSS
B4: Nb34 (VHH)
VHH: DVQLVESGGGLVQAGGSLRLSCAASGFTFSNYVMYWGRQAPGKGREWVSGIDSDGSDTAYASSVKGRFTISRDNAKNTLYLQMNNLKPEDTALYYCVKSKDPYGSPWTRSEFDDYWGQGTQVTVSS
B5: Nb17 (VHH)
VHH: B1 VHH
B6: Nb16 (VHH)
VHH: DVQLVESGGGLVQAGESLRLSCAASGDMFSSNAMAWYRQAPGKQRELVASITSGGNTNYADSVKGRFTISRDNAKNTVYLQMDSLKPEDTAVYYCNGVAYDYSWGRPRNFWGQGTQVTVSS
B7: Nb20 (VHH)
VHH: QVQLVESGGGLVQAGGSLRLSCAVSGAGAHRVGWFRRAPGKEREFVAAIGASGGMTNYLDSVKGRFTISRDNAKNTIYLQMNSLKPQDTAVYYCAARDIETAEYIYWGQGTQVTVSS
B8: Nb78 (VHH)
VHH: B7 VHH with V24I, G28S, H30N, I77V, D98N, I105T
B9: Nb11 (VHH)
VHH: HVQLVESGGGLVQAGGSLRLSCAVSGASAERVGWFRRAPGKEREFVAAIGANGGSTNYLDSVKGRFTISRDNAKNTVYLQMNSLKPQDTAVYYCAARNLETFDYTYWGRGTQVTVSS
B10: Nb21 (VHH)
VHH: B7 VHH with A27L, S52N, M55N, I105T
B11: Nb34 (VHH)
VHH: B4 VHH

Each binder was assayed against T1, SARS-CoV-2 (Wuhan-Hu-1 strain) spike glycoprotein on pseudotyped virus particles (SARS-CoV-2, UniProt P0DTC2 14-1273) (assay: cell-based or functional assay).

| Binder | IC50, virus neutralization in vitro (assay not stated) | neutralization of SARS-CoV-2 (assay not stated) | IC50, pseudovirus assay |
| --- | --- | --- | --- |
| B1 | ~25 ng/mL | ≤ 100 ng/mL | – |
| B2 | – | ≤ 100 ng/mL | – |
| B3 | – | – | 2 ng/ml and 0.129 nM |
| B4 | – | < 150 ng/mL | – |

The binders below were run against SARS-CoV-2 spike glycoprotein on authentic virus (Munich strain) (SARS-CoV-2 (Munich strain), UniProt P0DTC2 14-1273) (assay: cell-based or functional assay).

| Binder | Authentic virus PRNT IC50 |
| --- | --- |
| B5 | 1500 pM |
| B6 | 3160 pM |
| B7 | 42.2 pM |
| B8 | 766 pM |
| B9 | 780 pM |
| B10 | 44.8 pM |
| B11 | 1120 pM |

Each binder was assayed against SARS-CoV-2 spike glycoprotein (Wuhan-Hu-1 strain) on pseudotyped virus particles (SARS-CoV-2 (Wuhan-Hu-1 strain), UniProt P0DTC2 14-1273) (assay: cell-based or functional assay).

| Binder | Pseudo-neutralization IC50 (Luciferase) | Pseudo-neutralization (GFP) |
| --- | --- | --- |
| B5 | 1.1 nM | – |
| B6 | 1.57 nM | – |
| B7 | 0.114 nM | < 0.5 nM |
| B8 | 0.509 nM | – |
| B9 | 1 nM | – |
| B10 | 0.038 nM | < 0.5 nM |
| B11 | 2 nM | – |

These binders were tested against SARS-CoV-2 Munich strain spike glycoprotein on authentic virus (SARS-CoV-2) (assay: cell-based or functional assay).

| Binder | Authentic virus PRNT IC50 |
| --- | --- |
| B1 | 1.5 nM |
| B3 | 0.154 nM |
| B4 | 1.12 nM |

Target: T1, SARS-CoV-2 (Wuhan-Hu-1 strain) spike …
Experiment: cell-based or functional assay
Remark: another data set of the same source

| Binder | Pseudo-neut IC50 Luciferase | Pseudo-neutralization (GFP) |
| --- | --- | --- |
| B1 | 1.11 nM | – |
| B2 | 1.56 nM | – |
| B3 | 0.133 nM | < 0.5 nM |
| B4 | 1.99 nM | – |

The binders below were run against SARS-CoV-2 spike receptor-binding domain (RBD) (SARS-CoV-2, UniProt P0DTC2 319-541) (assay: indirect ELISA, RBD coated on plate, 4PL fit).

| Binder | ELISA affinity |
| --- | --- |
| B6 | 0.37 nM |
| B8 | 0.61 nM |
| B9 | 0.39 nM |
| B11 | 0.47 nM |
